Biological target: nsp12 (RdRp catalytic subunit);nsp8;nsp7 (SARS-CoV-2;SARS-CoV-2;SARS-CoV-2, UniProt P0DTD1;P0DTD1;P0DTD1 4393-5324;3943-4140;3860-3942, ||)
Assay: cryo-EM

| Binder | binding result |
| --- | --- |
| scaffold 1 (RMP at -3) (structured_RNA, strand 2 position 13 (written A) is remdesivir monophosphate (RMP, 1'-cyano)) RNA 1: UUUUCAUGCAUCGCGUAGGCUCAUACCGUAUUGAGACCUUUUGGUCUCAAUACGGUA RNA 2: UGAGCCUACGCGAUG | binds |
| scaffold 2 (RMP at -4) (structured_RNA, strand 2 position 12 (written A) is remdesivir monophosphate (RMP, 1'-cyano); oligo R-4) RNA 1: UUUUCAUGCACUGCGUAGGCUCAUACCGUAUUGAGACCUUUUGGUCUCAAUACGGUA RNA 2: UGAGCCUACGCAGUG | binds |

Source: article doi:10.1101/2020.10.28.358481
